T1: Helicoverpa armigera V-ATPase subunit c (Helicoverpa armigera)
T1 construct: also called V-ATPases Subunit C; ATPase V subunit c
T1 chain: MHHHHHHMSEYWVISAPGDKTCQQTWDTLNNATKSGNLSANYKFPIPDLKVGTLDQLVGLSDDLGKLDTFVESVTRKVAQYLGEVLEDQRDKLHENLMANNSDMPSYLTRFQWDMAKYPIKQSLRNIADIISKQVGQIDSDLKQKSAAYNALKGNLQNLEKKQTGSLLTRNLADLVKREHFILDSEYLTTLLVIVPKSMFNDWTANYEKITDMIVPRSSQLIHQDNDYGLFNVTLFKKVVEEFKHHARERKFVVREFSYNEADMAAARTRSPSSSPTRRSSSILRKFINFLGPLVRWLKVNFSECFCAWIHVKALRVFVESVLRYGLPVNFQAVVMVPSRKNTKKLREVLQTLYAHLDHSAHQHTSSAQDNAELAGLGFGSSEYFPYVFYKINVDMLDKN

T2: Helicoverpa armigera chitin deacetylase (Helicoverpa armigera)
T2 construct: the tag is not part of the printed entry; also called CDA; target CDA antigen
T2 chain: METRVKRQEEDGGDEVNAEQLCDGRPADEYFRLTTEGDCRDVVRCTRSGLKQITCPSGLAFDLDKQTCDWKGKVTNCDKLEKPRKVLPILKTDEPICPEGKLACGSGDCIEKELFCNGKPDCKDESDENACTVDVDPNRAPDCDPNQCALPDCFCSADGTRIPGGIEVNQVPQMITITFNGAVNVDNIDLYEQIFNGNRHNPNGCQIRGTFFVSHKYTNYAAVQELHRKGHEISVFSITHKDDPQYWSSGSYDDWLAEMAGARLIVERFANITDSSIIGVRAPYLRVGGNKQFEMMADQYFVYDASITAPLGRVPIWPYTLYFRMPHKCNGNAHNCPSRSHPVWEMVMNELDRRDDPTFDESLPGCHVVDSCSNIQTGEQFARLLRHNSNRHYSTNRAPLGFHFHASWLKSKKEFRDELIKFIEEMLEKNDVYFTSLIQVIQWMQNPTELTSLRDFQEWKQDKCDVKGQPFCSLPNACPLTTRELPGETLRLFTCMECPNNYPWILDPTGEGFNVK

T3: Helicoverpa armigera cytochrome p450 monooxygenase (Helicoverpa armigera, UniProt Q95031 23-504)
T3 construct: the tag is not part of the printed entry; also called target P450 antigen
T3 chain: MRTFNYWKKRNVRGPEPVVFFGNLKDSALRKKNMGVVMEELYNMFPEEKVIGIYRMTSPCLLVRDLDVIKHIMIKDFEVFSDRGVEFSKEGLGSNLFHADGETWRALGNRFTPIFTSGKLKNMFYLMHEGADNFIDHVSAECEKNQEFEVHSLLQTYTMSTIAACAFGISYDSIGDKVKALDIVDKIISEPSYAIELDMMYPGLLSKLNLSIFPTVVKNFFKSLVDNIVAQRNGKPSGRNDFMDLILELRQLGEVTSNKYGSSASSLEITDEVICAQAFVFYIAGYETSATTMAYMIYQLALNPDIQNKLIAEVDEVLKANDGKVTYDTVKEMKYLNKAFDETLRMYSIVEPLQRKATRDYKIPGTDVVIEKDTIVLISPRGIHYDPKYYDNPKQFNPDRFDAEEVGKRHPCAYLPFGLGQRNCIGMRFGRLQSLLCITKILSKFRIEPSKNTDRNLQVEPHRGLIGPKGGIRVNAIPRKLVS


Key:
[1] = target: T1, Helicoverpa armigera V-ATPase subunit c; experiment: ELISA, plate coated with the target antigen
[2] = target: T2, Helicoverpa armigera chitin deacetylase; experiment: ELISA, plate coated with 10 ug/ml target protein, 2 ug/ml nanobody, anti-VHH-HRP, A450
[3] = target: T3, Helicoverpa armigera cytochrome p450 …; experiment: as above

Binder | binding result [2] | binding result [3] | other results
VAT0101A (VHH, Llama nanobody, His-tagged, expressed in E. coli SHuffle T7; also called anti-VAT nanobody VAT0101A) VHH: QVQLQESGGGLVQAGGSLRLSCAASGSTFSGYIMSWFRQPPGKERELVAAITYVGSTYVEDSVKGRFTISRDNAKNTVSLQMNSLKPEDTAVYYCRAREGEQLDFWGQGTQVTVSS |  |  | binding result [1]: binds
CDA01A (VHH, Llama nanobody, His-tagged, expressed in E. coli SHuffle T7; also called CDA1a; anti-CDA nanobody CDA01A) VHH: QVQLQESGGGLVQAGGSLRLSCAASGRTFNTYAMGWFRQAPGKEREFVAAMNRDGSTVLYADSVKGRFAISKDNAKNTGYLQMNSLKPEDTAIYYCAANARYSDYTDGQSFVSWGQGTQVTVSS | binds |  | 
P45003A (VHH, Llama nanobody, His-tagged, expressed in E. coli SHuffle T7; also called anti-P450 nanobody P45003A) VHH: QVQLQESGGGLVQAGDSLRLSCVASKRSFSSHAMGWFRQAPGKAREFVATISWNSGSTFYSDSSRGRFTISRDNGKNTLYLQMNSLKPEDTAVYYCAAASGRGITASDFRYDAWGQGTQVTVSS |  | binds | 
CDA07A (VHH, Llama nanobody, His-tagged, expressed in E. coli SHuffle T7; also called CDA7a; CDA7A) VHH: QVQLQESGGGLVQAGGSLRLSCVASGRTFGNYGLAWFRQPPGKEREFVAAINNRGGNTYYADSVKGRFTISRDNAANTLYLQMSSLKPEDTAVYYCAADRTSLHSYRYTYWGQGTQVTVSS | binds |  | 
P45001A (VHH, Llama nanobody, His-tagged, expressed in E. coli SHuffle T7; also called anti-P450 nanobody P45001A) VHH: QVQLQESGGGLVQTGGSLRLSCAASGRTSRSYAMGWFRQAPGKERELVADIAWSDGRIYYSDSVKGRFTISRDNAKNTVYLEIDSLKPGDTAVYYCASRARGTVLYNYWGQGTQVTVSS |  | binds | 
P45004 (VHH, Llama nanobody, His-tagged, expressed in E. coli SHuffle T7; also called anti-P450 nanobody P45004) VHH: QVQLQESGGGLVQAGGSLRLSCAASGRTFSRINMGWFRQAPGKEREFVAVISWNSIADYADSVKARFTISRDNAKNTVYLQMNSLKPEDTAVYYCAASAPFRSKNPTLYLYWGRGTQVTVSS |  | binds | 
CDA05 (VHH, Llama nanobody, His-tagged, expressed in E. coli SHuffle T7; also called CDA5; anti-CDA nanobody CDA05) VHH: QVQLQESGGGLVQPGGSLRLSCTASGRTVSNYGMAWFRQVAGKERAFVAAINNRGDSKYYAESVKGRFTIARDNAKNTVYLQMNVLKPEDTAVYYCAADRRSLVRYEYNYWGQGTQVTVSS | binds |  | 
CDA10 (VHH, Llama nanobody, His-tagged, expressed in E. coli SHuffle T7; also called anti-CDA nanobody CDA10) VHH: QVQLQESGGGLVQTGESLRLSCAASGRTLSSYTMGWFRQAPGKEREIVAASSWSGGRTYYADSVKGRFTMSRNNAENTVYLQMNSLNPEDTAVYYCAADSSRAPRTYNYWGQGTQVTVSS | binds |  | 

Source: patent US20220386594A1 (IBI AG INNOVATIVE BIO INSECTICIDES, published 2022)
